Measurements reported in paper doi:10.1101/481887.

Experiments:
Gly-C2-iLID = assay: confocal imaging of light-induced recruitment to GUV membranes
[1] = target: COPY^o2 (Atto532-stathmin-Atto647N); assay: other fluorescence titration
phosphorylated COPY^o2 = assay: other fluorescence titration

| Substance | Kd (Gly-C2-iLID) [nM] | KD, high affinity site [1] [nM] | KD, low affinity site [1] [nM] | k off,stath (1:1 stathmin-tubulin complex; site not named) [1] [s⁻¹] | k on,stath (1:1 stathmin-tubulin complex; site not named) [1] [s⁻¹] | stoichiometry N [1] | k off,p-stath (1:1 phosphorylated stathmin-tubulin complex; site not named) (phosphorylated COPY^o2) [s⁻¹] | k on,p-stath (1:1 phosphorylated stathmin-tubulin complex; site not named) (phosphorylated COPY^o2) [s⁻¹] |
| --- | --- | --- | --- | --- | --- | --- | --- | --- |
| SspB (Stringent starvation protein B) (from UniProt P0AFZ3 1-165) (natural protein) | 360 |  |  |  |  |  |  |  |
| α,β-tubulin dimers (from UniProt P02550 1-451; P02554 1-445) (complex) |  | 30 | 2000 | 0.048 | 16 | 2 | 2.3 | 1.8 |
